The target of this assay is type I IL-1 receptor (IL-1R) (UniProt P14778). Nature of the assay: cell-based or functional assay.

The values below come from patent publication US20070065439A1.

Sequence of type I IL-1 receptor (IL-1R) (P14778 18-569 limits assumed): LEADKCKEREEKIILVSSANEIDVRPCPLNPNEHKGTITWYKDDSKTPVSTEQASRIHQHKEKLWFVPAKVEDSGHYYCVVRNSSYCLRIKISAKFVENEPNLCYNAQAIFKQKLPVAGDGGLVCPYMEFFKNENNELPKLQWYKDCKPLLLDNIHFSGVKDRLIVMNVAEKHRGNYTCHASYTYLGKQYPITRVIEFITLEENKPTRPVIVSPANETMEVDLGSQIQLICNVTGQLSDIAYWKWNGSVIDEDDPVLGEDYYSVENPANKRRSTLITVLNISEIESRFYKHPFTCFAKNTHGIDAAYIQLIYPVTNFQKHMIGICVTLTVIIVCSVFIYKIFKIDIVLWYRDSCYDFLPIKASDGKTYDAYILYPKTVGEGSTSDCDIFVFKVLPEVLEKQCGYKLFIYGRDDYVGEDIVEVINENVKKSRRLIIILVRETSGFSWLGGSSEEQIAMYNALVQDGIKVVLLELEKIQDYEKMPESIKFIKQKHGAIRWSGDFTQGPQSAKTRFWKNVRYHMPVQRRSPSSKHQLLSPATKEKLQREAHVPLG

In turn, “anakinra (KINERET) (from UniProt P18510 26-177) (ligand)” had an EC50, inhibition of IL-1β-induced IL-6 production in MRC-5 cells of 0.077 nM and an EC50, inhibition of IL-1β-induced IL-8 production in human whole blood of 0.984 nM.
